The record followed here is paper PMC3072391.

The target in assay [1] is NS5BΔ21-5a fused to cyan or citrine fluorescent protein (hepatitis C virus genotype 5a (patient isolate)). Nature of the assay: FRET or BRET; in vitro; purified NS5BΔ21-cyan and NS5BΔ21-citrine of the same genotype mixed equimolar, 50 nM each; 10 mM NaCl and 4.5 mM Mg(CH3COO)2; excitation 432 nm, FRET ratio = emission 530 nm/478 nm, normalised against NS5BΔ21-1b; twelve independent experiments. (In general: Bioluminescence resonance energy transfer reports proximity on the nanometre scale.)

The target is the same in assay [2]. Described as above. This is another data set of the same source.

Like-named read-outs stand apart in the source and are kept apart here.

On to “NS5BΔ21-5a fused to cyan or citrine fluorescent protein (enzyme)”, for which the results for the FRET ratio relative to NS5BΔ21-1b in assay [1] and in assay [2] were less than 50% and 40%, respectively.
